Consider twelve molecules from US20220177587A1, “METHODS AND USES OF VARIANT CD80 FUSION PROTEINS AND RELATED CONSTRUCTS” (Alpine Immune Sciences, Inc., priority 2018, published 2022).

Changes are numbered by the printed parent chain. Names may count otherwise.

For assay [1], the target named is human CTLA-4 (human) (UniProt P16410). Briefly: flow cytometry, CHO cells expressing huCTLA-4. A general note: A flow cytometer gives signals particle by particle.
Assay [2] has as its target CD28 (human) (UniProt P10747). Briefly: flow cytometry, Jurkat/IL2 reporter cells (CD28).
Assay [3] has as its target human PD-L1 (human) (UniProt Q9NZQ7). The experiment in a line: flow cytometry, CHO cells expressing huPD-L1.
For assay [4] the target is unchanged. The experiment in a line: flow cytometry, CHO cells expressing huPD-L1; MFI ratio to WT CD80 ECD-Fc (R&D).
For assay [5] the target is unchanged. The experiment in a line: flow cytometry; binding to PD-L1 cells against binding of the same variant to CD28 cells.
Assay [6] addresses CD28 (human) (UniProt P10747). Briefly: flow cytometry, Jurkat/IL2 reporter cells (endogenous CD28); MFI ratio to WT CD80 ECD-Fc (R&D).
In assay [7] the target is human CTLA-4 (human) (UniProt P16410). Briefly: flow cytometry, CHO cells expressing huCTLA4; MFI ratio to WT CD80 ECD-Fc (R&D).
Assay [8] deals with CD28 (human) (UniProt P10747). The experiment in a line: flow cytometry, Jurkat/IL2 reporter cells (endogenous CD28).
Assay [9] deals with human CTLA-4 (human) (UniProt P16410). Briefly: flow cytometry, CHO cells expressing huCTLA4.
Assay [10] has as its target CD28 (human) (UniProt P10747). The experiment in a line: flow cytometry, Expi293F cells transfected with CD28.
In assay [11] the target is human CTLA-4 (human) (UniProt P16410). Briefly: flow cytometry, Expi293F cells transfected with CTLA-4.
In assay [12] the target is human PD-L1 (human) (UniProt Q9NZQ7). Briefly: flow cytometry, Expi293F cells transfected with PD-L1.
human PD-L1 (human), sequence (Q9NZQ7 19-290): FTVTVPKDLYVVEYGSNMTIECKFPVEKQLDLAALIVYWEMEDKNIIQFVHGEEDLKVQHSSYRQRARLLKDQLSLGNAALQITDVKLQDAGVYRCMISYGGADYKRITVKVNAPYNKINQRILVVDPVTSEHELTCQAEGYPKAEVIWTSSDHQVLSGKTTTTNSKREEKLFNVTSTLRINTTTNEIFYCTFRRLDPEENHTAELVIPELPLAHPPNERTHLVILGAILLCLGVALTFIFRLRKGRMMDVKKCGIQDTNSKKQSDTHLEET

human CTLA-4 (human), sequence (P16410 36-223): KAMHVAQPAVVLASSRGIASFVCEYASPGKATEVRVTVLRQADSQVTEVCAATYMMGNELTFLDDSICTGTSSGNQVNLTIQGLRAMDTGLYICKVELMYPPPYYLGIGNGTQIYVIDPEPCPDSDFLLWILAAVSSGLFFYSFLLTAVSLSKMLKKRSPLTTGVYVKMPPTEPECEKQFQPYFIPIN

B1: variant CD80 IgV-Fc E35D/M47L (Fc fusion)
chain: VIHVTKEVKEVATLSCGHNVSVEELAQTRIYWQKDKKMVLTMMSGDLNIWPEYKNRTIFDITNNLSIVILALRPSDEGTYECVVLKYEKDAFKREHLAEVTLSVKAD
B1: the MFI at 33.3 nM came to 48000 MFI with human CTLA-4 (human) [1], 411 MFI with CD28 (human) [2] and 7530 MFI with human PD-L1 (human) [3].

B2: variant CD80 IgV-Fc E35D/D46E/M47V/L97Q (Fc fusion)
chain: B1 chain with D46E, L47V, L97Q
Turning to B2, the Fold change to WT was found to be 2.45 fold in the assay with human PD-L1 (human) [4] and 0.05 fold with CD28 (human) [6]. Moreover, the Ratio of PDL1:CD28 with human PD-L1 (human) [5] was 52. In addition, in the assay with human CTLA-4 (human) [7], the Fold change to WT CD80 worked out at 1.71 fold. Also, the results for the MFI at 33.3 nM with CD28 (human) [8], with human CTLA-4 (human) [9] and with human PD-L1 (human) [3] were 371 MFI, 305000 MFI and 19500 MFI, respectively.

B3: variant CD80 IgV-Fc E35D/M47V/V68M/K89N (Fc fusion)
chain: B1 chain with L47V, V68M, K89N
As to B3, the MFI at 33.3 nM worked out at 29500 MFI in the assay with human CTLA-4 (human) [1] and 21800 MFI in the assay with human PD-L1 (human) [3].

B4: variant CD80 IgV-Fc Q33L/E35D/N48K/L85Q/L97Q (Fc fusion)
chain: B1 chain with Q33L, L47M, N48K, L85Q, L97Q
On to B4, for which the Fold change to WT worked out at 5.69 fold in the assay with human PD-L1 (human) [4] and 0.04 fold with CD28 (human) [6]. The Ratio of PDL1:CD28 with human PD-L1 (human) [5] was 162. Moreover, the Fold change to WT CD80 in the assay with human CTLA-4 (human) [7] turned out to be 0.01 fold. Also, the MFI at 33.3 nM in the assay with CD28 (human) [8] worked out at 279 MFI; in the assay with human CTLA-4 (human) [9], 1180 MFI; with human PD-L1 (human) [3], 45200 MFI.

B5: variant CD80 IgV-Fc E35D/D46V/M47L (Fc fusion)
chain: B1 chain with D46V
Consider B5, for which the MFI at 33.3 nM was 45000 MFI with human CTLA-4 (human) [1] and 7990 MFI with human PD-L1 (human) [3].

B6: variant CD80 IgV-Fc E35D/M47V/N48K (Fc fusion)
chain: B1 chain with L47V, N48K
Regarding B6, the MFI at 33.3 nM with human CTLA-4 (human) [1] is 47400 MFI; with human PD-L1 (human) [3] it was 4850 MFI.

B7: variant CD80 IgV-Fc E35D/N48K/V68M (Fc fusion)
chain: B1 chain with L47M, N48K, V68M
Take B7: the MFI at 33.3 nM was found to be 33600 MFI in the assay with human CTLA-4 (human) [1] and 642 MFI in the assay with CD28 (human) [2].

B8: variant CD80 IgV-Fc E35D/D46V/V68M (Fc fusion)
chain: B1 chain with D46V, L47M, V68M
As to B8, the figures for the MFI at 33.3 nM in the assay with human CTLA-4 (human) [1] and in the assay with human PD-L1 (human) [3] were 31200 MFI and 26100 MFI, respectively.

B9: variant CD80 IgV-Fc E35D/M47V/N48K/V68M (Fc fusion)
chain: B1 chain with L47V, N48K, V68M
As to B9, the MFI at 33.3 nM is 32900 MFI with human CTLA-4 (human) [1] and 23500 MFI with human PD-L1 (human) [3].

B10: variant CD80 IgV-Fc E35D/D46V/L85Q (Fc fusion)
chain: B1 chain with D46V, L47M, L85Q
On to B10, for which the MFI at 33.3 nM with human CTLA-4 (human) [1] amounted to 48000 MFI; with CD28 (human) [2], 196 MFI; with human PD-L1 (human) [3] it was 4040 MFI.

B11: CD80 V4M/L70Q/A91G/I118V/T120S/T130A/K169E ECD-Fc (Fc fusion)
chain: VIHMTKEVKEVATLSCGHNVSVEELAQTRIYWQKEKKMVLTMMSGDMNIWPEYKNRTIFDITNNLSIVIQALRPSDEGTYECVVLKYEKDGFKREHLAEVTLSVKADFPTPSISDFEVPSSNIRRIICSASGGFPEPHLSWLENGEELNAINTTVSQDPETELYAVSSELDFNMTTNHSFMCLIKYGHLRVNQTFNWNTTKQEHFPDN
Turning to B11, the results for the MFI with CD28 (human) [10], with human CTLA-4 (human) [11] and in the assay with human PD-L1 (human) [12] were 89 MFI, 263 MFI and 6 MFI, respectively. The values for the parental ratio in the assay with CD28 (human) [10], in the assay with human CTLA-4 (human) [11] and with human PD-L1 (human) [12] were 0.94, 1.26 and 0.09, respectively.

B12: CD80 A91G/S103P ECD-Fc (Fc fusion)
chain: B11 chain with M4V, Q70L, S103P, V118I, S120T, A130T, E169K
Turning to B12, the values for the MFI with CD28 (human) [10] and in the assay with human PD-L1 (human) [12] were 39 MFI and 9 MFI, respectively. Besides, the parental ratio with CD28 (human) [10] was found to be 0.41; in the assay with human PD-L1 (human) [12], 0.13.
